Data taken from patent US20230322924A1 (Janssen / Centocor, published 2023).

B1: IC3B19 (IAPB57×CD3B219) IL1RAP×CD3 bispecific antibody (bispecific antibody, human IgG4 S228P, kappa, F234A L235A)
heavy: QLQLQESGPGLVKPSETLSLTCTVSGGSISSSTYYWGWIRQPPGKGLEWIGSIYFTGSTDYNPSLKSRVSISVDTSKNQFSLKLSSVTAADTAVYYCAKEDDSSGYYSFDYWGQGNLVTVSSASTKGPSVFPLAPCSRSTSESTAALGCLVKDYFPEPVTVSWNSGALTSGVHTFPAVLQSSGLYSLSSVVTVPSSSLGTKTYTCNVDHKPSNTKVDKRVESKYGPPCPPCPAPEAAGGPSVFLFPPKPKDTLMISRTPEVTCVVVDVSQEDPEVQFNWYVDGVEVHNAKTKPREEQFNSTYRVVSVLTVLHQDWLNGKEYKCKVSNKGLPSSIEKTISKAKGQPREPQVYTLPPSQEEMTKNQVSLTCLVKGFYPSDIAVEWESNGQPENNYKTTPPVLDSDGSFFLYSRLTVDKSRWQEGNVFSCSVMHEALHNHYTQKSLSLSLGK
light: DIQLTQSPSFLSASVGDRVTITCRASQGISSYLAWYQQKPGKAPKLLIYAASTLQSGVPSRFSGSGSGTEFTLTISSLQPEDFATYYCQQVNSYPLTFGGGTKVEIKRTVAAPSVFIFPPSDEQLKSGTASVVCLLNNFYPREAKVQWKVDNALQSGNSQESVTEQDSKDSTYSLSSTLTLSKADYEKHKVYACEVTHQGLSSPVTKSFNRGEC
VH: EVQLVESGGGLVQPGGSLRLSCAASGFTFNTYAMNWVRQAPGKGLEWVARIRSKYNNYATYYAASVKGRFTISRDDSKNSLYLQMNSLKTEDTAVYYCARHGNFGNSYVSWFAYWGQGTLVTVSS
VL: QTVVTQEPSLTVSPGGTVTLTCRSSTGAVTTSNYANWVQQKPGQAPRGLIGGTNKRAPGTPARFSGSLLGGKAALTLSGVQPEDEAEYYCALWYSNLWVFGGGTKLTVL
B2: IC3B34 (IAPB57×CD3B376) IL1RAP×CD3 bispecific antibody (bispecific antibody, human IgG4 S228P, kappa, lambda, F234A L235A)
heavy 1: not shown
light 1: B1 light
heavy 2: QVQLQQSGPRLVRPSQTLSLTCAISGDSVFNNNAAWSWIRQSPSRGLEWLGRTYYRSKWLYDYAVSVKSRITVNPDTSRNQFTLQLNSVTPEDTALYYCARGYSSSFDYWGQGTLVTVSSASTKGPSVFPLAPCSRSTSESTAALGCLVKDYFPEPVTVSWNSGALTSGVHTFPAVLQSSGLYSLSSVVTVPSSSLGTKTYTCNVDHKPSNTKVDKRVESKYGPPCPPCPAPEAAGGPSVFLFPPKPKDTLMISRTPEVTCVVVDVSQEDPEVQFNWYVDGVEVHNAKTKPREEQFNSTYRVVSVLTVLHQDWLNGKEYKCKVSNKGLPSSIEKTISKAKGQPREPQVYTLPPSQEEMTKNQVSLTCLVKGFYPSDIAVEWESNGQPENNYKTTPPVLDSDGSFLLYSKLTVDKSRWQEGNVFSCSVMHEALHNHYTQKSLSLSLGK
light 2: QSALTQPASVSGSPGQSITISCTGTSSNIGTYKFVSWYQQHPDKAPKVLLYEVSKRPSGVSSRFSGSKSGNTASLTISGLQAEDQADYHCVSYAGSGTLLFGGGTKLTVLGQPKAAPSVTLFPPSSEELQANKATLVCLISDFYPGAVTVAWKADSSPVKAGVETTTPSKQSNNKYAASSYLSLTPEQWKSHRSYSCQVTHEGSTVEKTVAPTECS
B3: C3CB88 (bispecific antibody, IgG4, V domains shown)
VH 1: EVQLVESGGGLVQPGRSLRLSCAASGFTFDDYAMHWVRQAPGKGLEWVSGIGWSGGSIVYADSVKGRFTISRDNAKNSLYLQMNSLRAEDTALYYCAKDSPYGDFFDYWGQGTLVTVSS
VL 1: DIVMTQSPDSLAVSLGERATINCKSSQTVFYSSNNKNYLAWYQQKPGQPPKLLISWASTRKSGVPDRFSGSGSGTDFTLTVSSLQAEDVAVYYCQHYYSTPYTFGQGTKLEIK
VH 2: B1 VH
VL 2: B1 VL
B4: C3CB189 (bispecific antibody, IgG4, V domains shown)
VH 1: B3 VH 1
VL 1: B3 VL 1
VH 2: QVQLQQSGPRLVRPSQTLSLTCAISGDSVFNNNAAWSWIRQSPSRGLEWLGRTYYRSKWLYDYAVSVKSRITVNPDTSRNQFTLQLNSVTPEDTALYYCARGYSSSFDYWGQGTLVTVSS
VL 2: QSALTQPASVSGSPGQSITISCTGTSSNIGTYKFVSWYQQHPDKAPKVLLYEVSKRPSGVSSRFSGSKSGNTASLTISGLQAEDQADYHCVSYAGSGTLLFGGGTKLTVL

How the values were obtained:
Test in all cases: cell-based or functional assay
[1] = target: T1, human IL1RAP (interleukin-1 receptor accessory protein) on LAMA-84 cells (human)
[2] = target: T1, human IL1RAP (interleukin-1 receptor …); remark: listed apart in the source
Cyno CD3e = Cyno CD3e (cynomolgus monkey, UniProt Q95LI5 22-198)
Cyno CD33 full length = Cyno CD33 full length (cynomolgus monkey)
Human CD33 full length [3] = target: T2, Human CD33 full length (human, UniProt P20138 18-364)
Human CD33 full length [4] = target: T2, Human CD33 full length; remark: listed apart in the source

T2 sequence (P20138 18-364 limits assumed): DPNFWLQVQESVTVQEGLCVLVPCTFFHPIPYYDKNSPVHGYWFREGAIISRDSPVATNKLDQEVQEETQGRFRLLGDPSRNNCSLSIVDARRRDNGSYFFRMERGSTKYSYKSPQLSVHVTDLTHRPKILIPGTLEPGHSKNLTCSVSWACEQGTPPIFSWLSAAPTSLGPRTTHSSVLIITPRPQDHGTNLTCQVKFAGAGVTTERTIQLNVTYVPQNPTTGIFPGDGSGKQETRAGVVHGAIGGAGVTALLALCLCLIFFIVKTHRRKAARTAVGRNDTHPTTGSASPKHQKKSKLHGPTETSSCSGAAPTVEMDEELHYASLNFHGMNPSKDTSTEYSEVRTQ
Cyno CD3e, sequence (Q95LI5 22-198): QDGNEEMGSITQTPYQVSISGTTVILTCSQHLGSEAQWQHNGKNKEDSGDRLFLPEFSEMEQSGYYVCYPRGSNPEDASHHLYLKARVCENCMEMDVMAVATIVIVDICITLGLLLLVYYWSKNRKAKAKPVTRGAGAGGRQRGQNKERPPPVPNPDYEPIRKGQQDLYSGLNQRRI

| Binder | Cytotoxicity EC50 (nM), LAMA-84 cell line, whole blood T cell cytotoxicity assay, 48 h [1] [nM] | T-cell Activation EC50 (nM) (CD25), LAMA-84 cell line, whole blood assay, 48 h [2] | T cell activation EC50 (Cyno CD3e) [nM] | CD33^+ CD14^+ Killing EC50 (Cyno CD33 full length) [nM] | Primary AML Cell Killing EC50 (Human CD33 full length [3]) [nM] | CD33^+ CD14^+ Killing EC50 (Human CD33 full length [4]) [nM] | MOLM13 Killing EC50 (Human CD33 full length [4]) [nM] |
| --- | --- | --- | --- | --- | --- | --- | --- |
| B1 | 2.1 | 4.24 |  |  |  |  |  |
| B2 | 2.76 | 7.83 |  |  |  |  |  |
| B3 |  |  | 0.02 | 0.89 | 0.672 | 0.506 | 0.671 |
| B4 |  |  | 0.02 | 3.6 | 0.578 | 1.16 | 0.168 |
